Literature values, collected in publication PMC10256198 (European Heart Journal, 2023).

Details: stated in the introduction, no reference given

Ghrelin: endogenous 28 amino acid anabolic peptide hormone, activated by acylation of amino-acid 3 (GSSFLSPEHQRVQQRKESKKPPAKLQPR; Ghrelin-28; UniProt Q9UBU3 24-51, looked up)
plasma half time: 24 to 30 min
